Laboratory results from publication PMC10044823, “Defensin Interactions in Relation to Monoclonal and Disease-Related Proteinase 3 Antibodies Binding at the Catalytic Site” (Antibodies, 2023).
Substitutions are numbered along the chain they refer to. Blank lines part the entries; values can stand above or below the binder they belong to.

Tests used:
[1] = biological target: T1, Proteinase 3 purified in-house from human neutrophil granulocytes (SSI PR3) (human, UniProt P24158, small N-linked glycans on Asn102 and 147; none, one or two alpha-defensins covalently attached to the glycans)
[2] = biological target: T1, Proteinase 3 purified in-house from …; assay: ELISA; elution assays with buffers of different pH: pH at which the MAb dissociated from PR3; details: both partners purified
[3] = biological target: T2, PR3 peptide 17 (Homo sapiens, UniProt P24158); assay: ELISA; synthetic 20-mer PR3 peptides coupled by an N-terminal cysteine to CovaLink-NH plates; MAb in solution; corrected by non-coated wells; details: both partners purified
T2 construct: By the stated scheme this would be residues 161-180 of mature PR3; source: synthetic peptide (Schäfer-N); not shown: cysteine, N-terminal, kept
T2 chain: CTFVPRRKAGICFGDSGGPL

[4] = biological target: T1, Proteinase 3 purified in-house from …; assay: SPR; Biacore 1000, CM5 chip, SSI PR3 immobilised by amine coupling (1287 RU); MAb (whole IgG) injected at 0.1 and 0.4 µg/mL, 25 °C, HBS-E pH 7.4 (10 mM HEPES, 3 mM EDTA, 150 mM NaCl); Langmuir or drifting baseline fit; 'pseudo-affinity/avidity' constants (apparent); details: both partners purified
[5] = biological target: T3, PR3 peptide 1 (Homo sapiens, UniProt P24158); assay: ELISA; synthetic 20-mer PR3 peptides coupled by an N-terminal cysteine to CovaLink-NH plates; MAb in solution; corrected by non-coated wells; details: both partners purified
T3 construct: By the stated scheme (20-mers, overlap 10, from the mature N-terminus) this would be residues 1-20 of mature PR3; Coupled to CovaLink-NH plates by the extra N-terminal cysteine; source: synthetic peptide (Schäfer-N); not shown: cysteine, N-terminal, kept
T3 chain: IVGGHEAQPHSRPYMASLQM

[6] = biological target: T4, PR3 peptide 3 (Homo sapiens, UniProt P24158); assay: as above; details: both partners purified
T4 construct: By the stated scheme this would be residues 21-40 of mature PR3; source: synthetic peptide (Schäfer-N); not shown: cysteine, N-terminal, kept
T4 chain: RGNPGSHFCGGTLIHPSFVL

[7] = biological target: T5, PR3 peptide 20 (Homo sapiens, UniProt P24158); assay: as above; details: both partners purified
T5 construct: source: synthetic peptide (Schäfer-N); not shown: cysteine, N-terminal, kept
T5 chain: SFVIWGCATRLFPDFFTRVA

[8] = biological target: T6, PR3 peptide 2 (Homo sapiens, UniProt P24158); assay: as above; details: both partners purified
T6 construct: By the stated scheme this would be residues 11-30 of mature PR3; source: synthetic peptide (Schäfer-N); not shown: cysteine, N-terminal, kept
T6 chain: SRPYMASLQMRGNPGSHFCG

[9] = biological target: T7, PR3 peptide 7 (Homo sapiens, UniProt P24158); assay: as above; details: both partners purified
T7 construct: By the stated scheme this would be residues 61-80 of mature PR3; source: synthetic peptide (Schäfer-N); not shown: cysteine, N-terminal, kept
T7 chain: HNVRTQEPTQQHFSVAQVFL

[10] = biological target: T8, PR3 peptide 16 (Homo sapiens, UniProt P24158); assay: as above; details: both partners purified
T8 construct: By the stated scheme this would be residues 151-170 of mature PR3; source: synthetic peptide (Schäfer-N); not shown: cysteine, N-terminal, kept
T8 chain: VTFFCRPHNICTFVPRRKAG

[11] = biological target: T9, human α1-antitrypsin (human, UniProt P01009 25-418); assay: ELISA + other: SDS-PAGE; α1-AT binding of the PR3 preparations, 'Determined by ELISA and/or SDS-PAGE'; details: both partners purified
T9 construct: also called AT; α1-AT; source: bought: Calbiochem, Merck
T9 sequence (P01009 25-418): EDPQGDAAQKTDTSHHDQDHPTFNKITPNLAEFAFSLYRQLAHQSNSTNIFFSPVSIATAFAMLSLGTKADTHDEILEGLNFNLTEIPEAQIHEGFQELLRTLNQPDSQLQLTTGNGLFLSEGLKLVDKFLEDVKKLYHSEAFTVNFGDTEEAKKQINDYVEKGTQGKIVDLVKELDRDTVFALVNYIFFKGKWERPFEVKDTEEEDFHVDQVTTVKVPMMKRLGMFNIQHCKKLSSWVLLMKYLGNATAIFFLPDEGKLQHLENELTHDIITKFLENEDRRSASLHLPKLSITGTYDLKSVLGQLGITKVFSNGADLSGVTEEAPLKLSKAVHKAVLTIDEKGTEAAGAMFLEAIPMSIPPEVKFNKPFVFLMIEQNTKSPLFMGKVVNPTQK

binding result [1]: binds
B1: 172-03 (antibody, V domains shown)
VH: QVQLQQAGAELVKPGASVKLSCKASGYTFTNYWMHWVKQRPGQGLEWIGEINPTNGGINYNEEFIKKATLTADKSSNTAYMQLSGLTSEDSAVYFCLIEIMTGEGYWGQGTSLTVSS
VL: DILMTQSPSSLTVSAGEKVTMSCKSSQNLLVSGNQNNYLAWHQQKPGRSPKMLIIWASTRVSGVPDRFIGSGSGTDFTLTINSVQAEDLAVYYCQQSFSAPLTFGAGTKLELK

Elution pH (High) [2]: 12 pH | Elution pH (Low) [2]: 4 pH | binding result [3]: binds | Ka [4]: 5.23e+13 M⁻¹ | Kd [4]: 0.0191 pM | koff [4]: 5.21e-08 s⁻¹ | kon [4]: 2.72e+06 M⁻¹ s⁻¹
B2: PR3 MAb HYB 172-01 (antibody, V domains shown)
VH: EVQLEQSGGDLVKPGGSLKLSCAASGFTFSTYGMSWVRQTPDKRLEWVATFVSGGSYNYYPDSVKGRFAISRDNAKNALYLQMSSLKSEDTAMYYCVRRGASYDALDYWGQGTSVTVSS
VL: SIVMTQTPKFLLVSAGDRITITCKASQSVSNDVAWYQQKPGQSPKLLIYYASNRYTGVPDRFTGSGYGTDFTFTISTVQAEDLAVYFCQQDYSSPFTFGSGTKLEIK
notes: Mouse IgG1,κ (clone 6A6); raised against a Triton X-100 extract of purified neutrophil granulocyte alpha-granules; also called clone 6A6; source: mouse hybridoma, produced in-house

Elution pH (High) [2]: 12 pH | Elution pH (Low) [2]: 2 pH | binding result [3]: binds | Ka [4]: 1.81e+11 M⁻¹ | koff [4]: 6.84e-05 s⁻¹ | kon [4]: 1.24e+07 M⁻¹ s⁻¹
B3: PR3 MAb HYB 172-05 (antibody, V domains shown)
VH: EVQLQQSGPDLVKPGASVKISCKASGYSFTGYYLHWVKQSHGKSLEWIGRVNPNNDITTYNQKFKDKAILTVDKSSSTAYMEFRSLTSEDSAVYYCAGGGNALDYWGQGTSVTVSS
VL: B2 VL with S1R, I19V, D32N, A34G, P40T, S93N, F96Y, S100G
notes: Mouse IgG2a,κ (clone 4A5); also called clone 4A5; source: mouse hybridoma, produced in-house

Elution pH (High) [2]: 12 pH | Elution pH (Low) [2]: 2 pH | binding result [5]: binds | binding result [6]: binds | binding result [7]: binds | binding result [8]: binds | binding result [3]: binds | binding result [9]: binds | binding result [10]: binds | Ka [4]: 1.8e+10 M⁻¹ | Kd [4]: 55.5 pM | koff [4]: 0.000571 s⁻¹ | kon [4]: 1.03e+07 M⁻¹ s⁻¹
B4: PR3 MAb HYB 172-04 (antibody, V domains shown)
VH: B3 VH with Q3K, Q5E
VL: EIVLTQSPAIMSASLGEEITLTCSASSSVSYMHWYQQKSGTSPKLLIYSTSNLASGVPSRFSGSGSGTFYSLTISSVEAEDAADYYCHQWSSYGTFGGGTKLEIK
notes: Mouse IgG2a,κ (clone 4A3); also called clone 4A3; source: mouse hybridoma, produced in-house

binding result [11]: binds
B5: Proteinase 3 purified in-house from human neutrophil granulocytes (SSI PR3) (enzyme, UniProt P24158 28-248, looked up)
chain: IVGGHEAQPHSRPYMASLQMRGNPGSHFCGGTLIHPSFVLTAAHCLRDIPQRLVNVVLGAHNVRTQEPTQQHFSVAQVFLNNYDAENKLNDVLLIQLSSPANLSASVATVQLPQQDQPVPHGTQCLAMGWGRVGAHDPPAQVLQELNVTVVTFFCRPHNICTFVPRRKAGICFGDSGGPLICDGIIQGIDSFVIWGCATRLFPDFFTRVALYVDWIRSTLR
modifications: small N-linked glycans on Asn102 and 147; none, one or two alpha-defensins covalently attached to the glycans
notes: proteinase 3, human, active mature enzyme purified from neutrophil granulocytes; The preparation carries on average 5-6 associated alpha-defensins per PR3 (mostly non-covalent); proteolytically active; also called PR3 (SSI); native PR3 complex

binding result [11]: binds
B6: Proteinase 3 from Arotec (Arotec PR3) (enzyme, human, UniProt P24158 28-248, looked up)
chain: B5 chain
modifications: small N-linked glycans on Asn102 and 147; none, one or two alpha-defensins covalently attached to the glycans
notes: proteinase 3, human, commercial preparation; On average 1-2 associated defensins per PR3; source: bought: Arotec

binding result [11]: binds
B7: Proteinase 3 from Wieslab/Eurodiagnostica (Wieslab PR3) (enzyme, human, UniProt P24158 28-248, looked up)
chain: B5 chain
modifications: small N-linked glycans on Asn102 and 147; none, one or two alpha-defensins covalently attached to the glycans
notes: proteinase 3, human, commercial preparation; The preparation carries on average 5-6 associated alpha-defensins per PR3; proteolytically active; also called PR3 (Wieslab); source: bought: Wieslab/Eurodiagnostica
